“Also recorded” adds a separate entry of the source. Where no end group is shown, it is not given here.
Experiments:
MPO [1] = target: T1, MPO (Homo sapiens, UniProt P05164); assay: Direct binding ELISA of HPLC-purified peptides; conditions: 24-mer P18, 21-mers of P18, P48, P76, negative controls P28 and P61, mean ± SEM, n = 4 wells, p<0.05, figure 3B
MPO [2] = target: T1, MPO; assay: Peptide screening, direct binding ELISA of 87 overlapping Cp peptides; conditions: combined data of 87 ELISA plates; 24-mers not HPLC-purified; figure 2A
MPO [3] = target: T1, MPO; assay: Surface plasmon resonance, immobilized MPO; conditions: read-out: binding affinity (Kd); MPO immobilized on CM5 chip via -NH2; Cp 1 to 200 nM; Biacore3000, 30 μl/min; Biaevaluation software
Cp = conditions: oxidation of ferrous ions and removal of peroxides; ref [14]; cited from earlier work
MPO [4] = conditions: ref [14]; cited from earlier work

T1 sequence (P05164 279-745 limits assumed): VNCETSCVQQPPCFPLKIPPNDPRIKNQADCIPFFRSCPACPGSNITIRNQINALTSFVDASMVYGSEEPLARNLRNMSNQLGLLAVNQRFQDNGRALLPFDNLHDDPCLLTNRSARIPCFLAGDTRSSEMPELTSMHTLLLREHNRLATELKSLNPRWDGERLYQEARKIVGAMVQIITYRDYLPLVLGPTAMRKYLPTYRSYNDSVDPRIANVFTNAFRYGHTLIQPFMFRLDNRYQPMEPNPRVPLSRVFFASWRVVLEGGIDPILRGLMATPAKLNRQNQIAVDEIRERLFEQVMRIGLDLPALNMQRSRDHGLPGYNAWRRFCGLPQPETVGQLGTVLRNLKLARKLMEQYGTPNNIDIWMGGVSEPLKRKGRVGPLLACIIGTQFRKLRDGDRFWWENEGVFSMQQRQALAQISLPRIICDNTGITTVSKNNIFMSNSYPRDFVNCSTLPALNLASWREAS
T1 sequence (P05164 165-273 limits assumed): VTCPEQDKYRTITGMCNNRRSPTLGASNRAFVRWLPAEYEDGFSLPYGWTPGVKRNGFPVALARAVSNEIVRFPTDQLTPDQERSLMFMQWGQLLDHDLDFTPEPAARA

Row | Molecule | binding of MPO to HPLC-purified surface-adsorbed peptide (MPO [1]) | peptide-MPO to Cp-MPO absorbance ratio (MPO [2]) | Kd (MPO [3]) [nM] | effect of MPO binding on antioxidant activities of Cp (Cp) | binding to and inhibition of myeloperoxidase (MPO [4])
1 | VVDENFSWYLEDNIKTYCSEPEKV [P18] | bound more MPO than its shorter, 21-mer version; also recorded: bound more MPO than P76 | two major peaks | – | – | –
2 | Cp: Purified human Cp (Vital Products), copper-containing ferroxidase (protein) KEKHYYIGIIETTWDYASDHGEKKLISVDTEHSNIYLQNGPDRIGRLYKKALYLQYTDETFRTTIEKPVWLGFLGPIIKAETGDKVYVHLKNLASRPYTFHSHGITYYKEHEGAIYPDNTTDFQRADDKVYPGEQYTYMLLATEEQSPGEGDGNCVTRIYHSHIDAPKDIASGLIGPLIICKKDSLDKEKEKHIDREFVVMFSVVDENFSWYLEDNIKTYCSEPEKVDKDNEDFQESNRMYSVNGYTFGSLPGLSMCAEDRVKWYLFGMGNEVDVHAAFFHGQALTNKNYRIDTINLFPATLFDAYMVAQNPGEWMLSCQNLNHLKAGLQAFFQVQECNKSSSKDNIRGKHVRHYYIAAEEIIWNYAPSGIDIFTKENLTAPGSDSAVFFEQGTTRIGGSYKKLVYREYTDASFTNRKERGPEEEHLGILGPVIWAEVGDTIRVTFHNKGAYPLSIEPIGVRFNKNNEGTYYSPNYNPQSRSVPPSASHVAPTETFTYEWTVPKEVGPTNADPVCLAKMYYSAVEPTKDIFTGLIGPMKICKKGSLHANGRQKDVDKEFYLFPTVFDENESLLLEDNIRMFTTAPDQVDKEDEDFQESNKMHSMNGFMYGNQPGLTMCKGDSVVWYLFSAGNEADVHGIYFSGNTYLWRGERRDTANLFPQTSLTLHMWPDTEGTFNVECLTTDHYTGGMKQKYTVNQCRRQSEDSTFYLGERTYYIAAVEVEWDYSPQREWEKELHHLQEQNVSNAFLDKGEFYIGSKYKKVVYRQYTDSTFRVPVERKAEEEHLGILGPQLHADVGDKVKIIFKNMATRPYSIHAHGVQTESSTVTPTLPGETLTYVWKIPERSGAGTEDSACIPWAYYSTVDQVKDLYSGLIGPLIVCRRPYLKVFNPRRKLEFALLFLVFDENESWYLDDNIKTYSDHPEKVNKDDEEFIESNKMHAINGRMFGNLQGLTMHVGDEVNWYLMGMGNEIDLHTVHFHGHSFQYKHRGVYSSDVFDIFPGTYQTLEMFPRTPGIWLLHCHVTDHIHAGMETTYTVLQNEDTKSG | – | – | 30 | does not inhibit important antioxidant activities of Cp | bind and inhibit myeloperoxidase (MPO)

Source: PMC4253670 (Biochemical and biophysical research communications, 2014)
